What was measured:
[1] = target: T1, L30 (ribosomal protein L30) wild-type (rat, UniProt P62890 1-115); assay: UV cross-linking; 30 mM Tris-HCl pH 8.0, 75 mM KCl, 5 mM MgCl2, 1 mM DTT, 0.04 ug/uL BSA, 10% glycerol, 50 ng/uL yeast tRNA, 30 C 15 min; EMSA gels 0.5X TBE at 4 C; RNase digesti
[2] = target: T1, L30 (ribosomal protein L30) wild-type; assay: EMSA; 5 mM Mg2+; 30 mM Tris-HCl pH 8.0, 75 mM KCl, 5 mM MgCl2, 1 mM DTT, 0.04 ug/uL BSA, 10% glycerol, 50 ng/uL yeast tRNA, 30 C 15 min; EMSA gels 0.5X TBE at 4 C; RNase digesti

Binder | binding result [1] | Kd [2]
PHGPx SECIS wild-type (UV cross-linking) (structured_RNA) RNA: CUGCCCUGUGACCCCUGGAGCCUUCCACCCCGGCACUCAUGACGGUCUGCCUGAAAACCAGCCCGCUGGUGGGGCAGUCCCGAGGACCUGGCGUGCAUCCCCGCCGGAGGAAGGUCCAGACGCUGUGGCC | binds | 
PHGPx SECIS U40C (structured_RNA) RNA: CUGCCCUGUGACCCCUGGAGCCUUCCACCCCGGCACUCACGACGGUCUGCCUGAAAACCAGCCCGCUGGUGGGGCAGUCCCGAGGACCUGGCGUGCAUCCCCGCCGGAGGAAGGUCCAGACGCUGUGGCC | no binding | 
GGGACCGGAGUGUCGCAAGACGCAGAGAUGGUCC (structured_RNA) [L30 RNA (stem-loop of L30 pre-mRNA)] |  | 170 nM
